This assay has as its target T1, full-length murine BTNL2 expressed on 300.19 cells (mouse).
T1 construct: No signal peptide limits are stated; also called mBTNL2; mouse BTNL2
T1 chain: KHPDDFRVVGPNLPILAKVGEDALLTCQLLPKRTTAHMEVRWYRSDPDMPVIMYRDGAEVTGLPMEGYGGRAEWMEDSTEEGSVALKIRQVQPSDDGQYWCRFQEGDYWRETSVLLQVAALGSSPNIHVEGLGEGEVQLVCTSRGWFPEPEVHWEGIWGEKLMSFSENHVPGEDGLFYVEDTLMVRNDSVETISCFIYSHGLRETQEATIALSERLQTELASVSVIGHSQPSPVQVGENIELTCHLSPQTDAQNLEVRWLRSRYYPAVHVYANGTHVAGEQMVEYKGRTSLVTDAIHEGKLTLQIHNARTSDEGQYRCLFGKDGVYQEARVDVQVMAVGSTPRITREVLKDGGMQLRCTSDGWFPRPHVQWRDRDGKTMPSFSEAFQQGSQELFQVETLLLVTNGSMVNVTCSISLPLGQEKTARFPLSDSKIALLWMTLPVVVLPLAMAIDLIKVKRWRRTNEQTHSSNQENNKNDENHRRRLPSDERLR
The experiment in a line: flow cytometry, cell binding on 300.19 cells expressing full-length mBTNL2. Here is the method: All rat anti-mouse BTNL2 mAbs were tested for reactivity with specific Ig domains of BTNL2 by flow cytometry on 300.19 cells transfected with full length murine BTNL2 cDNA, murine BTLN2 (first IgV domain)-murine PD-L1 (IgC, transmembrane and cytoplasmic domains, or BTNL2 (first IgV domain and 2nd Ig domain and short exon 4)-human TIM-1 mucin-transmembrane-cytoplasmic domains and for lack of reactivity with untransfected 300.19 cells. In particular, mouse pre-B cell line 300.19 cells were transfected by electroporation with full length murine BTNL2 cDNA, murine BTLN2 (first IgV domain)-murine PD-L1 (IgC, transmembrane and cytoplasmic domains, or BTNL2 (first IgV domain and 2nd Ig domain and short exon 4)-human TIM-1 mucin-transmembrane-cytoplasmic domains in the pEFGF-Puro expression vector. Cells were selected in media containing puromycin, sorted, and subcloned. […] Cells were stained with target antibodies and isotype controls using standard flow cytometry procedures, and analyzed on a FACSCanto (BD Biosciences) and FlowJo 9.2 software (TreeStar). […]
A number of anti-BTNL2 monoclonal antibodies were generated and analyzed (see FIGS. 3C-3D and Table 3 below for details), including extensive analysis of two exemplary anti-BTNL2 monoclonal antibodies that were prepared in rat against mouse BTNL2 (mBTNL2). […]

B1: anti-mouse BTNL2 monoclonal antibody clone 311.8A7 (antibody, rat IgG1, V domains shown)
VH: EVRLVESGGGLVQPGRSLKLSCAASGFTFRIFYMAWVRQSPTKGLEWVAYISAGSDFTYYRDSVKGRFTISRDDAKSTLYLEMDSLRSEDTATYHCTTGYRYNFAYWGQGTLVTVSS
VL: DIQLTQSPSSLPASLGERVTISCRSSQDINSHLNWYQQKPDGTIKALIYQTSNLQSGVPSRFSGSGSGADYSLTISSLEPEDFAIFHCQQDADFPYTFGAGTKLELK
notes: Rat IgG1 (kappa) from a hybridoma, 311 series
Consider B1, for which the EC50 is 0.054 mg/L.

For the origin of these results see patent US20210032334A1 (Dana-Farber, published 2021).
